Reference: patent US20210009693A1 (MABSPACE BIOSCIENCES SUZHOU, published 2021)

Experiments:
[1] = target: T1, human PD-L1 expressed on cells (human, UniProt Q9NZQ7 19-290); experiment: blocking FACS on HCC827 cells; blocked ligand: biotinylated hPD-1-N297A
T1 construct: whole, on cells; also called hPD-L1 expressed on HCC827; hPD-L1 on MC38/hPD-L1 cells
Experimental: Log phase IFN-γ stimulated (500U/ml for 2 days) HCC827 cells were collected and resuspended in blocking buffer (5% BSA+PBS). 2×10\hat{ }5 cells were added to each tube and then washed once with PBS (1500 rpm, 5 mins, RT). […] After washing for three times with PBS, 100 μl/tube streptavidin-PE 1:200 in blocking buffer was added to each tube. The cells were incubated at 4° C. for 1 hr and then washed twice with PBS, followed by resuspending cells in 150 μl PBS for each sample. The cells were then transferred into FACS tube and the binding of the antibodies to the cells were detected with flow cytometry (ACEA Bioscience Novocyte) (see FIGS. 20A and 20B).

[2] = target: T1, human PD-L1 expressed on cells; experiment: FACS, IFN-gamma stimulated HCC827 cells
[3] = target: T2, Human PD-L1/CD274 with C-Fc Tag (hPD-L1-Fc) (human, UniProt Q9NZQ7 19-238); experiment: blocking ELISA on coated hPD-L1-Fc; blocked ligand: biotinylated hPD-1-N297A
T2 construct: range 19-238; ACRO Biosystem PD1-H5258, made in HEK293; also called human PD-L1-Fc; not shown: Fc fragment of human IgG1 at C-terminus
T2 sequence (Q9NZQ7 19-238 limits assumed): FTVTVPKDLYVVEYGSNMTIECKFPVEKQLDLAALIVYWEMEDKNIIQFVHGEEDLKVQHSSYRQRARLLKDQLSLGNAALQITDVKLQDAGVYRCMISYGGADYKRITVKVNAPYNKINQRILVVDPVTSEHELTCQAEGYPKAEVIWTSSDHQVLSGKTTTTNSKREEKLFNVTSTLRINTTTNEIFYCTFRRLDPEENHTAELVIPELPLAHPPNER

[4] = target: T3, human PD-L1-Fc mutant E58A (human); experiment: ELISA on captured PD-L1-Fc, as in Example 18A
T3 construct: Position 58 counts on native human PD-L1 (NP_054862.1); also called E58A mutant
T3 sequence (chain, as listed by the source E58A E58A limits assumed): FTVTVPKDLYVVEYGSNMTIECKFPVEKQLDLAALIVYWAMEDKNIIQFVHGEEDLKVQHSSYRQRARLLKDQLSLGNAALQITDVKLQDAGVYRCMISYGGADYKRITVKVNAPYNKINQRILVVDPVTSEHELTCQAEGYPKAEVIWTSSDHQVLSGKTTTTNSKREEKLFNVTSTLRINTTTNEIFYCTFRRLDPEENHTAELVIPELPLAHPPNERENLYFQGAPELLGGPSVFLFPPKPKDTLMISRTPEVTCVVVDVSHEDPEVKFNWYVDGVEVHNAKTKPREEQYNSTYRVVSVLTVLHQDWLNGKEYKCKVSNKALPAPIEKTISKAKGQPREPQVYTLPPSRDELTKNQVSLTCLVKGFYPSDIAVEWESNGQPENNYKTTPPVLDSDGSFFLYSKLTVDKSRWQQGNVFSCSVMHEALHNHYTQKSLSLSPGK

[5] = target: T4, wild type human PD-L1-Fc protein (SEQ ID NO: 107) (human); experiment: ELISA on captured PD-L1-Fc, as in Example 18A
T4 construct: Extracellular human PD-L1 (amino acid 19-238) with Fc fragment of human IgG1, expressed in 293T cells and used as culture supernatant; also called WT PD-L1; wild-type PD-L1
T4 sequence (chain, as listed by the source limits assumed): as the sequence (chain, as listed by the source E58A E58A limits assumed) above, with A40E counted along it

[6] = target: T2, Human PD-L1/CD274 with C-Fc Tag …; experiment: blocking ELISA on coated hPD-L1-Fc; blocked ligand: biotinylated hPD-1-Fc-N297A
Experimental: High-binding clear polystyrene 96 well plates (Nunc) were coated with 100 μl/well of coating solution consisting of 0.5 μg/ml hPD-L1-Fc overnight at 4° C. Then washed once on an automatic plate washer using washing buffer PBS+0.1% Tween 20 (Sigma). 200 μl of blocking buffer (PBS+1% BSA+1% normal goat serum+0.05% Tween-20) was added to each well and incubated for 2 hours at room temperature. Then add serial diluted antibodies (from 10 μg/ml to 0.0006 μg/ml) with dilution buffer (PBS+1% BSA+1% normal goat serum+0.01% Tween-20) and incubate for 1 hour at RT. The plates were then washed 3 times using the method described above. […] After the plates were washed 3 times, 100 μl/well of a solution of HRP conjugated Neutravidin antibody (Pierce) diluted in dilution buffer was then added to each well of the plate. After that the ELISA plates were allowed to incubate for 60 min at RT then plates were washed 3 times with 250 μl/well washing buffer. Finally, 100 μl/well of TMB was added to each well and reaction was terminated using 0.64M H₂SO₄. The plates were read on a Thermo Multiscan FC at 450 nM (see FIG. 4A).

[7] = target: T5, Recombinant Mouse PD-L1/CD274 Protein (mPD-L1-his) (mouse, UniProt Q9EP73 19-238); experiment: ELISA, 20 ug/ml antibody on coated mouse PD-L1 (his-tagged per text, mPD-L1-Fc per sheet title)
T5 construct: range 19-238; ACRO Biosystem PD1-M5220; also called mouse PD-L1-his
T5 sequence (Q9EP73 other isoform, or with tags, fused parts or gaps limits assumed): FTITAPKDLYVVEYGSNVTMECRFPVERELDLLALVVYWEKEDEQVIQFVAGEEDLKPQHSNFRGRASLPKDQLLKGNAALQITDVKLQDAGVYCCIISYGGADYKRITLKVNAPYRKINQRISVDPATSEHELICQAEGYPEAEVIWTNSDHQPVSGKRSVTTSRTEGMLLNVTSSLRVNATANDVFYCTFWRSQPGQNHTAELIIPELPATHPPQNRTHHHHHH
Experimental: High-binding clear polystyrene 96 well plates (Nunc) were coated with 100 μl/well of 1 μg/ml mouse PD-L1-his in high pH coating buffer and incubated overnight at 4° C. Then plates were washed once on an automatic plate washer using washing buffer (PBS+0.1% Tween 20 (Sigma)). 200 μl of blocking buffer (PBS+1% BSA+1% normal goat serum+0.05% Tween-20) was added to each well and incubated for 2 hours at room temp. Then add 20 μg/ml purified hybridoma mouse antibodies in dilution buffer (PBS+1% BSA+1% normal goat serum+0.01% Tween-20) and incubate for 1 hour at RT. The plates were then washed 3 times with 250 μl/well washing buffer. 100 μl/well of a solution of HRP conjugated goat anti-mouse Fc antibody (Abcam) in dilution buffer was then added to each well of the plate. After that the ELISA plates were allowed to incubate for 60 min at RT then plates were washed 3 times with 250 μl/well washing buffer. Finally, 100 μl/well of TMB was added to each well and the reaction was terminated using 0.64M H₂SO₄. The plates were read on a Thermo Multiscan FC at 450 nM (see FIG. 6F).

[8] = target: T6, Recombinant Human PD-L1/CD274 Protein (hPD-L1-his) (human, UniProt Q9NZQ7 19-238); experiment: ELISA, purified mouse antibody on coated hPD-L1-his
T6 construct: range 19-238; ACRO Biosystem PD1-H5229, made in HEK293; also called human PD-L1-his; hPD-L-his
T6 sequence (Q9NZQ7 other isoform, or with tags, fused parts or gaps limits assumed): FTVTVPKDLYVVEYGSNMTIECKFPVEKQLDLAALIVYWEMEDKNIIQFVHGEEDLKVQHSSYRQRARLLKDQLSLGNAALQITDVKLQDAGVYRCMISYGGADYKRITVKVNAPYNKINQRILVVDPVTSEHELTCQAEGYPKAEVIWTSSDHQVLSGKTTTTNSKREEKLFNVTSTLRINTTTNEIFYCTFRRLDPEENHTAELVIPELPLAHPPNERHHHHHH
Experimental: High-binding clear polystyrene 96 well plates (Nunc) were coated with 100 μl/well of a 0.5 μg/ml hPD-L1-his in high pH coating buffer and incubated overnight 4° C. Then plates were washed once on an automatic plate washer using washing buffer (PBS+0.1% Tween 20 (Sigma)). 200 μl of blocking buffer (PBS+1% BSA+1% normal goat serum+0.05% Tween-20) was added to each well and incubated 2 hours at room temp. Then add serially diluted purified antibodies with dilution buffer (PBS+1% BSA+1% normal goat serum+0.01% Tween-20) and incubate for 1 hour at RT. The plates were then washed 3 times using the method described above. 100 μl/well of a solution of HRP conjugated goat anti-mouse Fc antibody (Abcam) in dilution buffer was then added to each well of the plate. After that the ELISA plates were allowed to incubate for 60 min at RT then plates were washed 3 times with 250 μl/well washing buffer. Finally, 100 μl/well of TMB was added to each well and was terminated using 0.64M H₂SO₄. The plates were read on a Thermo Multiscan FC at 450 nM (see FIG. 3).

[9] = target: T7, hPD-L2-Fc (human, UniProt Q9BQ51 20-219); experiment: ELISA, plate coated with hPD-L2-Fc
T7 construct: Acrobiosystems PD2-H5251; also called human PD-L2 protein; not shown: Fc tag
T7 sequence (looked up): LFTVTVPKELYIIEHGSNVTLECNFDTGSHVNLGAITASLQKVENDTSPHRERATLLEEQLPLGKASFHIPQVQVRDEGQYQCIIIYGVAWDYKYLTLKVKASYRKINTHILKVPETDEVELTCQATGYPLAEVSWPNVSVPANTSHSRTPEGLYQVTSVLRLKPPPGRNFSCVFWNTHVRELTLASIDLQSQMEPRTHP
Experimental: Briefly, high-binding clear polystyrene 96 well plates (Nunc) were coated with 100 μl/well of a 0.5 μg/ml human PD-L1-Fc (Acrobiosystems, Cat #PD1-H5258) or 100 μl/well of a 1 μg/ml hPD-L2-Fc (Acrobiosystems, Cat #PD2-H5251), respectively, in high pH coating buffer (0.16% Na2CO3+0.3% NaHCO₃, pH 9.8) and incubated overnight at 4° C. Then the plates were washed once on an automatic plate washer using washing buffer (PBS+0.1% Tween 20 (Amresco)). 200 μl of blocking buffer (PBS+1% BSA+1% normal goat serum+0.05% Tween-20) was added to each well and incubated for 2 hours at room temp. Then add 100 μl 2 μg/ml purified PD-L1 antibodies with dilution buffer (PBS+1% BSA+1% normal goat serum+0.01% Tween-20) and incubate for 1 hour at RT. The plates were then washed 3 times with washing buffer. 100 μl/well of a solution of HRP conjugated goat anti-mouse IgG antibody (1:20000, Abcam) in dilution buffer was then added to each well of the plate. After that the ELISA plates were allowed to incubate for 60 min at RT then the plates were washed 3 times with 250 μl/well washing buffer. Finally, 100 μl/well of TMB was added to each well for 15 min and the reaction was terminated using 50 ul/well of 0.16 M/L sulfuric acid. The plates were read on a Thermo Multiscan FC at 450 nM (see FIG. 6G).

T1 sequence (Q9NZQ7 19-290): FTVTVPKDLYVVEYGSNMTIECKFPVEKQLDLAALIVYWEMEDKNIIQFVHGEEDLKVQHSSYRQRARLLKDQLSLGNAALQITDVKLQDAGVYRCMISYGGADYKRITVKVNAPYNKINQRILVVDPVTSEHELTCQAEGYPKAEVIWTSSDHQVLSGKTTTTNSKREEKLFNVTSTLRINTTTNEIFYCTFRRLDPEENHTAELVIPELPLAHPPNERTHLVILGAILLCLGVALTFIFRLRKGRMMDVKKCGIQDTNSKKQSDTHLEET

B1: 4B6-H3L4 (antibody, V domains shown)
VH: QVQLVQSGAEVVKPGASVKISCKASGYVFTDYYMNWVKQAPGQGLEWIGDINPNNGGTSYNQKFQGRATVTVDKSTRTAYMELSRLRSDDTAVYYCVKWGDGPFAYWGQGTLVTVSS
VL: DIQMTQSPSSLSASVGDRVTITCQASQNVGAAVAWYQQKPGKAPKLLIYSASNLYTGVPSRFSGSGSGTDFTLTISSLQPEDIATYFCQQYSNYPTFGSGTKLGIK
notes: produced in 293 cells; light chain constant region not described; also called humanized 4B6 H3L4
- IC50 (read off the curve) [1]: ~0.02 µg/mL
- EC50 (read off the curve) [2]: ~0.04 µg/mL
- IC50 (read off the curve) [3]: ~0.03 µg/mL

B2: 26F5 (antibody, V domains shown)
VH: QVQLQQPGAELVKPGASVKLSCKASGYTFPSYWMHWMKQRPGQGLEWIGMIQPSTSGTIYNERFKNQVTLTVDKSSSTAYMQLSSQTSEDSAVYYCARGTGTVDYFDYWGQGTTLTVSS
VL: DIVLTQSPASLAVSLGQRATISCRASESVDSYGNSFIHWYQQKPGQPPKLLIHRASNLESGIPATFSGSGSRTDFTLTINPVEADDVATYYCQQSKEDPYTFGGGTKLEIK
notes: Mouse monoclonal from hybridoma; also called mouse monoclonal antibody 26F5
- % of binding of Ab to E58A mutant vs. that to WT PD-L1 [4]: 60.6%
- Mean OD450 [4]: 0.93 OD450
- OD450 nM of sample-1 [4]: 1.18 OD450
- OD450 nM of sample-2 [4]: 0.678 OD450
- Mean OD450 [5]: 1.53 OD450
- OD450 nM of sample-1 [5]: 1.39 OD450
- OD450 nM of sample-2 [5]: 1.68 OD450
- IC50 (read off the curve) [6]: ~0.02 µg/mL
- binding result [7]: no binding (tested: 20 ug/ml)
- EC50 (read off the curve) [8]: ~0.003 µg/mL
- binding result [9]: no binding (tested: 2 ug/ml)
